Experimental data taken from PMC10663207.

How the values were obtained:
[1] = target: NMDA receptor subunit GluN2A (rat (endogenous in primary cortical neurons)) (UniProt Q00959); assay: co-IP; precleared lysates (700 µg) of rat primary cortical neurons incubated overnight with protein G-agarose carrying anti-GluN2A or anti-GluN2B; blots for STIM1 and STIM2; control neurons and neurons treated with 50 µM NMDA and 100 µM glycine for 15 min; bands normalised to the precipitated subunit
[2] = target: NMDA receptor subunit GluN2B (rat (endogenous in primary cortical neurons)) (UniProt Q00960); assay: as above
Sequence of UniProt Q00960 (Q00960 27-1482): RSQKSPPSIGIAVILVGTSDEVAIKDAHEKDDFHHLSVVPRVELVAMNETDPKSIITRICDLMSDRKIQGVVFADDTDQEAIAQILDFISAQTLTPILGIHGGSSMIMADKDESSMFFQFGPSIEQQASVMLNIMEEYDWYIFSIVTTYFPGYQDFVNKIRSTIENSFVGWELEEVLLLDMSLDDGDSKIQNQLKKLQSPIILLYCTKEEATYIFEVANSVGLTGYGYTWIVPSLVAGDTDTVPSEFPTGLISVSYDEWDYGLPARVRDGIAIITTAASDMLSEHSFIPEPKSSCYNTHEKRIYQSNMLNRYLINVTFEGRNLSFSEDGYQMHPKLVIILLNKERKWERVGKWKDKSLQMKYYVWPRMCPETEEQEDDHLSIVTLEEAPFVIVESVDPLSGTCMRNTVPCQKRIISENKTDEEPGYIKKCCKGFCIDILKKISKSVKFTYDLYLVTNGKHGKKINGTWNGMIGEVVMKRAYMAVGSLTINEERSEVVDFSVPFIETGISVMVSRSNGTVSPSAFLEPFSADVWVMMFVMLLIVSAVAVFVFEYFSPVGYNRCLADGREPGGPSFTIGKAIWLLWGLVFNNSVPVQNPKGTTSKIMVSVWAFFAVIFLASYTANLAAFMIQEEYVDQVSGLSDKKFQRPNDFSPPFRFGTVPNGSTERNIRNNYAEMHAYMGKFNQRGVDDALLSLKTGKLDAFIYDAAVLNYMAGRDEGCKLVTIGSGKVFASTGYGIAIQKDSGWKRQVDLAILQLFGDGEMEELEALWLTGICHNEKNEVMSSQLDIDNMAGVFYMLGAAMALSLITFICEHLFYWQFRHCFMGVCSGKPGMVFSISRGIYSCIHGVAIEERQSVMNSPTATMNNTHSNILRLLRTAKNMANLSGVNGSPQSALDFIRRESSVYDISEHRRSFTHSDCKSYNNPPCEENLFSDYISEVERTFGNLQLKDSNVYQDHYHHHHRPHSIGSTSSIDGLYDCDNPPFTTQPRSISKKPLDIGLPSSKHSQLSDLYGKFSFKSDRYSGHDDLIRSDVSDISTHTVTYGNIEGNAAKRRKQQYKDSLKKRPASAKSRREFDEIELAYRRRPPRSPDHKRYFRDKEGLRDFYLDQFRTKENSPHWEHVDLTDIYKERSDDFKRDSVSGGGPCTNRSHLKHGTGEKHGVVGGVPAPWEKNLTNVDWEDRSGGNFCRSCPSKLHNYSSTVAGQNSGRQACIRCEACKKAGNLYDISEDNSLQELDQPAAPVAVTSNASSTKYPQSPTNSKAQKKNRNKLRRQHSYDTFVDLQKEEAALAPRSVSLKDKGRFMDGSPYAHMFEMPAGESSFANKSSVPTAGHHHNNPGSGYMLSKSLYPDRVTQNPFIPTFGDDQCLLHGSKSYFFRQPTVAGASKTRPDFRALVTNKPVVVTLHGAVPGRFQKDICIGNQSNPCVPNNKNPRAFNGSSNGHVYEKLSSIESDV

Sequence of UniProt Q00959 (Q00959 23-1464): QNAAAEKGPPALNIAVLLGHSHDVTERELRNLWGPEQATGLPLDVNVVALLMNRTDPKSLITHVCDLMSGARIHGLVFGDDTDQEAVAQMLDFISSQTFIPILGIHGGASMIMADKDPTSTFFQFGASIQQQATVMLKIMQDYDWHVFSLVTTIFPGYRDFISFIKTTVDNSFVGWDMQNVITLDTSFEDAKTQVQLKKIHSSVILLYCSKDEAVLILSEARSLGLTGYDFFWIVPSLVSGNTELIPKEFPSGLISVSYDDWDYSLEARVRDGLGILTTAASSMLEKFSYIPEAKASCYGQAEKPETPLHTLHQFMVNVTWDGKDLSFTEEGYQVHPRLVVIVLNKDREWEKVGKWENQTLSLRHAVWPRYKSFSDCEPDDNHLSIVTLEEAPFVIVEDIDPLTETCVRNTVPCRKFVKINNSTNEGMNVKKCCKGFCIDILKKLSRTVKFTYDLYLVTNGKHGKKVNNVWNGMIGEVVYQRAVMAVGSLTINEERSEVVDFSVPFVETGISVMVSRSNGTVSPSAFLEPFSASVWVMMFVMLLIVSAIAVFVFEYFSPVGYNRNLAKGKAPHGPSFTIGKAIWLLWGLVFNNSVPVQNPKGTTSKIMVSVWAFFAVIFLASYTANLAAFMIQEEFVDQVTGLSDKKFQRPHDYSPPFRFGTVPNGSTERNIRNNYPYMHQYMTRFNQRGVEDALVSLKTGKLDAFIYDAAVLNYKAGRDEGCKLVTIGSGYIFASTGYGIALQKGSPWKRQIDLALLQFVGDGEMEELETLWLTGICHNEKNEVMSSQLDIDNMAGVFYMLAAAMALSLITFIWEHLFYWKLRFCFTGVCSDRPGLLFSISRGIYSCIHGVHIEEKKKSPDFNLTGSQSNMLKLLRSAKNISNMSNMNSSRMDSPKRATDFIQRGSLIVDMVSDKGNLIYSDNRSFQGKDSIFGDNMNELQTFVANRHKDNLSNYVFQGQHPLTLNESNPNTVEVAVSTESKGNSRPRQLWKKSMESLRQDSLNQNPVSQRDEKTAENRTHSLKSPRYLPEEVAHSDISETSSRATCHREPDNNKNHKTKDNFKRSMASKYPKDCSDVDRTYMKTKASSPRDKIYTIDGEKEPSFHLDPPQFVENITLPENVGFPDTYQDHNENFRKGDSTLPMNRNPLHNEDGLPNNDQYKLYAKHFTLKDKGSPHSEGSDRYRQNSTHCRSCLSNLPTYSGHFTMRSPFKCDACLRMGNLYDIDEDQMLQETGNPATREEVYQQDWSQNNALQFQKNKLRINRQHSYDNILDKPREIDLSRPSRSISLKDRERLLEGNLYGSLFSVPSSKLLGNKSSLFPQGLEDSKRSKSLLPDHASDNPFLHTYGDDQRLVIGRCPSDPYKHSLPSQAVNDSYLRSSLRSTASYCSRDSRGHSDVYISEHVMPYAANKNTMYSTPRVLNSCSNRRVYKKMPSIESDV

- co-IP band after NMDA and glycine treatment, percent of control neurons [1]: 340%
- co-IP band after NMDA and glycine treatment, percent of control neurons [2]: 204%
Substance: stromal interaction molecule 2 (STIM2) (natural protein)
